Experiments:
[1] = tested on: pooled phosphopeptide:BSA conjugates (Pools A-D); experiment: Coded multiplex phosphopeptide binding assay with pooled peptide:BSA conjugates on 4 spots; conditions: for ECL signal, spot A: Pool A, EGFR-pTyr1148, IkBa-24ppC, Myc-p58Tp62S; for ECL signal, spot B: Pool B, EGFR-pTyr992, EGFR-pTyr1148, Smad3C; for ECL signal, spot C: Pool C, EGFR-pTyr1068, IkBa-24ppC, Smad3C; for ECL signal, spot D: Pool D, EGFR-pTyr992, EGFR-pTyr1068, Myc-p58Tp62S
From the text: To prepare the Multi-Spot IPR plates, in this example we made use of pools of the peptide:BSA conjugates to coat each of 4 spots per well in a 96 well plate. To achieve this we made the following pools; • Pool A; EGFR-pTyr1148, IkBa-24ppC, Myc-p58Tp62S. • Pool B; EGFR-pTyr992, EGFR-pTyr1148, Smad3C. • Pool C; EGFR-pTyr1068, IkBa-24ppC, Smad3C. • Pool D; EGFR-pTyr992, EGFR-pTyr1068, Myc-p58Tp62S.
This combination of the various peptides results in any single peptide being present in two pools. Each of these four pools is then spotted on to a unique spot in a 4 spot array. In this way any single binding protein with specificity for only one of the peptides would bind to two spots; the identity of the two spots would allow the identification of the peptide involved in the binding reaction.
Typically approximately 120 fmole of peptide:BSA conjugate in 0.25 μl was deposited on each spot of a 4-spot multi-array IPR plates using a BioDot Dispenser (Bio-Dot Inc., vIrvine Calif.). At this stage, the plates were dried then used or stored under desiccated condition. A few hours prior to usage, the plates were rehydrated and blocked with 3% BSA, in PBS.
To test the system the following EST clones IMAGE # 3491843, 4237375, 4398016, 4419252, 3872466, 3907115 were obtained. These clones express the following genes βTRCP1, βTRCP2, Grb2, PLCγ, CBP and Shc1, respectively. […] These DNAs were used to produce proteins as described in the Materials and Methods. Proteins were transferred to a well of the 4 spot peptide-coated and BSA blocked ECL plates. The binding assay (using Sulfo-TAG labeled streptavidin as a detection agent) was carried our according to the procedures described in Example 11.

[2] = target: T1, pY1068 peptide (SEQ ID NO: 7) (Homo sapiens, UniProt P00533); experiment: 96-well screen for phosphopeptide binding proteins, 7-spot IPR plates; conditions: two steps of normalization; top 9 clones
T1 construct: phosphotyrosine at Tyr1068 (chemical modification); purchased New England Peptide, Fitchburg Mass; host or cells: chemical synthesis
Description: (§1) A screen was conducted using 7-spot IPR plates. The 7 spot NPT IPR plates are described in more detail in copending Provisional Application No. 60/301,932 (entitled “Assay Plates, Reader Systems and Methods for Luminescence Test Measurements”, filed on Jun. 29, 2001, hereby incorporated by reference) and particularly in the description of Plate Type D in Example 6.1 (NPT IPR plate) and U.S. application Ser. Nos. 10/185,274 and 10/185,363, filed Jun. 28, 2002, each hereby incorporated by reference. These plates consist of a 96 wells with 7 zones (spots) for the immobilization of proteins or other reagents. Each spot was coated with BSA conjugated to either a single phosphopeptide or multiple phosphopeptides.
(§2) The plates were prepared essentially as described in example 12. The seven spots supported, respectively, the following BSA conjugates IkB, pY992, pY1068, pY1148, Myc, “A”, and “6-P”. “A” refers to a conjugate of BSA with multiple peptides: IkB, pY1148, Myc which were then coupled to BSA. “6-P” refers to a conjugate of BSA with the following multiple peptides: IkB, pY1148, pY992, pY1068, Smad3C.
(§3) For the assay, 4 ul from TnT reaction product described above were added to the coated plate containing 50 μl of binding buffer supplemented with 50 ng/well Ru-Streptavidin. The binding reaction was allowed to proceed at room temperature for 1 hour with constant shaking. […] The ECL signals were measured using an imaging plate reader (IPR). The raw data from the IPR reader was then normalized using two steps of normalization. The first round was based on the 50 lowest values for a given specific spot.

pY1148 (SEQ ID NO: 9) = target: T2, pY1148 (SEQ ID NO: 9) (Homo sapiens, UniProt P00533); experiment: as above; conditions: two steps of normalization; top 9 clones
T2 construct: phosphotyrosine at Tyr1148 (chemical modification); purchased New England Peptide, Fitchburg Mass; host or cells: chemical synthesis
Description: as §1, §2, §3

[3] = target: T3, pY992 peptide (SEQ ID NO: 5) (Homo sapiens, UniProt P00533); experiment: as above; conditions: two steps of normalization; top 9 clones
T3 construct: phosphotyrosine at Tyr992 (chemical modification); purchased New England Peptide, Fitchburg Mass; host or cells: chemical synthesis
Description: as §1, §2, §3

[4] = target: T4, EGFR-pY992 (SEQ ID NO: 5) (Homo sapiens, UniProt P00533); experiment: Single-well 4-spot assay for multiple peptide-protein interactions; type: binding; conditions: 4-spot plate
T4 construct: phosphotyrosine at Tyr992 (chemical modification); purchased New England Peptide, Fitchburg Mass; host or cells: chemical synthesis
From the text: (§4) Four phosphopeptides and their cognate binding proteins (Table 14) were selected for an integrated assay of multiple peptide-protein interaction in 4-spot Multi-Array plates. The IkBa-24pp peptide and its binding protein, βTRCP, are described in Example 10. […] These phosphotyrosine containing peptides are recognized by different adaptor or effecter proteins of the receptor tyrosine kinase signaling pathway.
(§5) These four peptides were coupled to BSA carrier protein through cystine residue. After purification on PD-10 gel filtration columns, the peptide-BSA conjugates were then deposited on the assay domains of a 4-spot multi-array IPR plate (i.e., in one of the four exposed regions of working electrode defined by the dielectric layer) with an automated micro-dispensing system (Bio-Dot Dispenser, Bio-Dot, Irvine Calif.). […] These plates are dried then used or stored under desiccated conditions. A few hours prior to usage the plates were rehydrated and blocked with 3% BSA in PBS. […] The in vitro translated and biotin-labeled proteins were then assayed in the 4-spot multi-array IPR plates under conditions described in Example 10.

[5] = target: T5, EGFR-pY1148 (SEQ ID NO: 9) (Homo sapiens, UniProt P00533); experiment: as above; type: binding; conditions: 4-spot plate
T5 construct: phosphotyrosine at Tyr1148 (chemical modification); purchased New England Peptide, Fitchburg Mass; host or cells: chemical synthesis
From the text: as §4, §5

[6] = target: T6, EGFR-pY1068 (SEQ ID NO: 7) (Homo sapiens, UniProt P00533); experiment: as above; type: binding; conditions: 4-spot plate
T6 construct: phosphotyrosine at Tyr1068 (chemical modification); purchased New England Peptide, Fitchburg Mass; host or cells: chemical synthesis
From the text: as §4, §5

Row | Code (pattern of positive spots) [1] | Peptide determined from code [1] | ECL signal, spot A [1] | ECL signal, spot B [1] | ECL signal, spot C [1] | ECL signal, spot D [1] | normalized ECL signal, pY1068 spot [2] | normalized ECL signal, pY1148 spot (pY1148 (SEQ ID NO: 9)) | normalized ECL signal, pY992 spot [3] | ECL signal, spot 4 EGFR-pY992 [4] | ECL signal, spot 2 EGFR-pY1148 [5] | ECL signal, spot 3 EGFR-pY1068 [6] | Molecule
1 | B, C, D | EGFR-pTyr992 & EGFR-pTyr1068 | 239 | 2783 | 1550 | 3388 | 55 | 4 | 10 | 1404 | 110 | 1485 | 4419252: IMAGE clone protein: PLCγ (protein) MAGAASPCANGCGPGAPSDAEVLHLCRSLEVGTVMTLFYSKKSQRPERKTFQVKLETRQITWSRGADKIEGAIDIREIKEIRPGKTSRDFDRYQEDPAFRPDQSHCFVILYGMEFRLKTLSLQATSEDEVNMWIKGLTWLMEDTLQAPTPLQIERWLRKQFYSVDRNREDRISAKDLKNMLSQVNYRVPNMRFLRERLTDLEQRSGDITYGQFAQLYRSLMYSAQKTMDLPFLEASTLRAGERPELCRVSLPEFQQFLLDYQGELWAVDRLQVQEFMLSFLRDPLREIEEPYFFLDEFVTFLFSKENSVWNSQLDAVCPDTMNNPLSHYWISSSHNTYLTGDQFSSESSLEAYARCLRMGCRCIELDCWDGPDGMPVIYHGHTLTTKIKFSDVLHTIKEHAFVASEYPVILSIEDHCSIAQQRNMAQYFKKVLGDTLLTKPVEISADGLPSPNQLKRKILIKHKKLAEGSAYEEVPTSMMYSENDISNSIKNGILYLEDPVNHEWYPHYFVLTSSKIYYSEETSSDQGNEDEEEPKEVSSSTELHSNEKWFHGKLGAGRDGRHIAERLLTEYCIETGAPDGSFLVRESETFVGDYTLSFWRNGKVQHCRIHSRQDAGTPKFFLTDNLVFDSLYDLITHYQQVPLRCNEFEMRLSEPVPQTNAHESKEWYHASLTRAQAEHMLMRVPRDGAFLVRKRNEPNSYAISFRAEGKIKHCRVQQEGQTVMLGNSEFDSLVDLISYYEKHPLYRKMKLRYPINEEALEKIGTAEPDYGALYEGRNPGFYVEANPMPTFKCAVKALFDYKAQREDELTFIKSAIIQNVEKQEGGWWRGDYGGKKQLWFPSNYVEEMVNPVALEPEREHLDENSPLGDLLRGVLDVPACQIAIRPEGKNNRLFVFSISMASVAHWSLDVAADSQEELQDWVKKIREVAQTADARLTEGKIMERRKKIALELSELVVYCRPVPFDEEKIGTERACYRDMSSFPETKAEKYVNKAKGKKFLQYNRLQLSRIYPKGQRLDSSNYDPLPMWICGSQLVALNFQTPDKPMQMNQALFMTGRHCGYVLQPSTMRDEAFDPFDKSSLRGLEPCAISIEVLGARHLPKNGRGIVCPFVEIEVAGAEYDSTKQKTEFVVDNGLNPVWPAKPFHFQISNPEFAFLRFVVYEEDMFSDQNFLAQATFPVKGLKTGYRAVPLKNNYSEDLELASLLIKIDIFPAKENGDLSPFSGTSLRERGSDASGQLFHGRAREGSFESRYQQPFEDFRISQEHLADHFDSRERRAPRRTRVNGDNRL
2 | A, C | IkBa-24ppC | 7791 | 105 | 8615 | 74 | – | – | – | – | 35 | 24 | 4237375: IMAGE clone protein: βTRCP2 (protein) MEPDSVIEDKTIELMCSVPRSLWLGCANLVESMCALSCLQSMPSVRCLQISNGTSSVIVSRKRPSEGNYQKEKDLCIKYFDQWSESDQVEFVEHLISRMCHYQHGHINSYLKPMLQRDFITALPEQGLDHIAENILSYLDARSLCAAELVCKEWQRVISEGMLWKKLIERMVRTDPLWKGLSERRGWDQYLFKNRPTDGPPNSFYRSLYPKIIQDIETIESNWRCGRHNLQRIQCRSENSKGVYCLQYDDEKIISGLRDNSIKIWDKTSLECLKVLTGHTGSVLCLQYDERVIVTGSSDSTVRVWDVNTGEVLNTLIHHNEAVLHLRFSNGLMVTCSKDRSIAVWDMASATDITLRRVLVGHRAAVNVVDFDDKYIVSASGDRTIKVWSTSTCEFVRTLNGHKRGIACLQYRDRLVVSGSSDNTIRLWDIECGACLRVLEGHEELVRCIRFDNKRIVSGAYDGKIKVWDLQAALDPRAPASTLCLRTLVEHSGRVFRLQFDEFQIISSSHDDTILIWDFLNVPPSAQNETRSPSRTYTYISR
